Values quoted from earlier work in paper PMC7460564.
Read-outs that look alike come from different tables or passages of the source.

How the values were obtained:
[1] = target: EGFR ECD (Homo sapiens) (UniProt P00533)
[2] = target: HER2 (Homo sapiens) (UniProt P04626)
[3] = target: EGFR (Homo sapiens) (UniProt P00533)
[4] = target: EGFR ECD (Homo sapiens) (UniProt P00533); remark: listed apart in the source

Kd [1] [nM] | Kd [2] [nM] | Kd [3] [nM] | Kd [4] [nM] | Substance
15 |  |  |  | EGF (from UniProt P01133)
 | 7.3 | 17.7 | 5300 | PEPD (prolidase) (from UniProt P12955)
